The assay has as its target human serum amyloid P (human), P02743. Nature of the assay: SPR. The following applies: remark: other sources report otherwise.

Sequence of human serum amyloid P (human), P02743 (P02743 20-223): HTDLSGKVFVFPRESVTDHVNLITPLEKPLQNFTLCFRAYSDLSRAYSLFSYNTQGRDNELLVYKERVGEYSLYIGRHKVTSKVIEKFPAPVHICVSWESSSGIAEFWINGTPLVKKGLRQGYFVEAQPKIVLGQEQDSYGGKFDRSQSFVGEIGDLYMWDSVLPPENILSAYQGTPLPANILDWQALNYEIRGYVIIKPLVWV

B1: hFcγRIIIB, O75015 17-200 (receptor)
chain: GMRTEDLPKAVVFLEPQWYSVLEKDSVTLKCQGAYSPEDNSTQWFHNENLISSQASSYFIDAATVNDSGEYRCQTNLSTLSDPVQLEVHIGWLLLQAPRWVFKEEDPIHLRCHSWKNTALHKVTYLQNGKDRKYFHHNSDFHIPKATLKDSGSYFCRGLVGSKNVSSETVNITITQGLAVSTIS
Molecule B1 gave an equilibrium dissociation constant (Kd) of 370 pM.

As usually defined, the Kd is the constant that tells how readily two partners part at equilibrium. Higher therefore signals lower affinity.
